The target of test [1] is bevacizumab (human). Put plainly: ELISA; pH 5.5; biologic titrated and captured on coated human VEGF165; 1 ug/mL hFcRn-GST added for 1 h at room temperature (100 mM phosphate, 0.15 M NaCl, 4% skimmed milk, 0.05% Tween 20); detected with HRP-conjugated anti-GST.
Test [2] has as its target aflibercept (human). The description is as above.

Sequence of recombinant hFcRn-GST (P55899 whole entry, looked up, tested part not stated): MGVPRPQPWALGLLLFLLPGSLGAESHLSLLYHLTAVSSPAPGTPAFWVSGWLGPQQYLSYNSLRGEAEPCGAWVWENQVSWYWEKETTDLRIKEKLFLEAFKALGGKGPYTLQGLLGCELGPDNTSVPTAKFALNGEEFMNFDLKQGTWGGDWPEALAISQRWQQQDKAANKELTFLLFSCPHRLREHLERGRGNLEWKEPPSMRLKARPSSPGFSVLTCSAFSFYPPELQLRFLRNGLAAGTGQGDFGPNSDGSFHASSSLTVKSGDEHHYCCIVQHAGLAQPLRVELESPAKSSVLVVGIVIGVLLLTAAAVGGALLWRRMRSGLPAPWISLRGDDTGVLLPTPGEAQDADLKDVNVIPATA
Sequence of bevacizumab (human) (heavy, as listed by the source, chain 1 of 2): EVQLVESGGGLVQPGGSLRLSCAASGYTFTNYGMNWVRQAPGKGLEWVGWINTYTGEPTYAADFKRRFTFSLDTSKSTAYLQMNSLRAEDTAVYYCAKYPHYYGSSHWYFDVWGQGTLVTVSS
Sequence of bevacizumab (human) (light, as listed by the source, chain 2 of 2): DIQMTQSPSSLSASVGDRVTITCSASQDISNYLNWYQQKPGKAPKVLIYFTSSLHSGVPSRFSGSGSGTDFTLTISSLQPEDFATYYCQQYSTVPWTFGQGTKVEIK

For the substance “recombinant hFcRn-GST (from UniProt P55899 24-365) (receptor)”, the reduction of absorbance at D30 (capped syringe) against D0-n worked out at 18.7% in test [1] and 37.5% in test [2].

The values are drawn from paper PMC11182194.
